Assay results from the DeepSol protein solubility set.

Assay: soluble on expression in E. coli; label from the status in PepcDB or PDB records

Question: For “MDRVIEDKELGRLVVRDNVRAKRLVFRTKADAIYISIPLGVTMREVKEAIEKLRPRLLDSRQKLVRPLIDLNYRIETEYFKLSLVSGKRERFLAHSELGEMRIICPPTADFTDSNLQDWLRKVIEEALRRNAKIILPPRLYMLSEKHRLPYESVQINSSRGRWGSCSSRKKINLSYFLVLLPKHLIDYVLLHELCHTCEMNHGDRFWNLLNGLTDGKALELREELKRYKTEILEHHHHHH”, which “soluble on expression in E. coli” value is on record?
Answer: not soluble

Question: For “MDSDSGEQSEGELSPGHESFNSKSLALQAQKKILSKMATMAVANLLTDDTSSEILDELYKASREYTKSKKEAHKIIKDVIKIALKIGILYRNHQFSPEEMETVERFKKKMNQAAMTVVSFYEVEYTFDRGILSELLLECRDLLHELVEHHLTMRSHGRIDHVFNHFADVDFLTELYGPSEDYRLNLRKICDGINKLLDEGTL”, which “soluble on expression in E. coli” value is on record?
Answer: not soluble

Question: Which “soluble on expression in E. coli” value does the source give for “MDSGMVTPELKKAFAERGIDIIPVDVGTKMLVNELHPSHHDSTQVVIGSPIIPAPGNIDPQLRSYRIRRRMTVEANPFLLDHVIAGTPVLPATCGMSWMINACEECYPGYRYFRCQDFKILKGITFNDKVASEHILEIQEVAKHGSESIEFKTKVLSKTPEGKIHYHFSAHITIVRELPAAPVYESLDMTEDHTIGAIGKDFYQKGGLSLFHGISFQQITRVLNINSQKITVECCWAEIPLETQGQFPVKWHNPYATDLSTQPLWLWLSHVHQEVCLPGQITKSEQFRAIPRNKPFYVSCEIEHKTPSGVTADIILHDREGKIYFRIYQAKAIIAPMNLHLEHHHHHH” here?
Answer: not soluble

Question: For “MDSKSHGWLIGANGTILETHDGGEHWEPRTFDFLRMDEEINYRFESISCYGNEGWIVGKPPILLHTQNGGKDWERIPLSSKLPGEPVLITALGPNRAELATTAGAIYTTDNGGKNWKALVKETIDATLNRTTSSGVTGASYYTGTVISITRDCNGYYLAISSRGNFYVTWHPGQEYWTPHPRDSSRRIQSMGFVQNDIHKGLWMANNGGFLGFSPPNPSLDTVSSIPFQRVDIRTGGYGILDVAFHQQKRNEVWASVGSGILYRSFDGGKHWEKDPWLDHLGSVLYRIKFVENSGFILGAKGTLLRYNG”, which “soluble on expression in E. coli” value is on record?
Answer: soluble

Question: For “MDSNEIIKRVRERVYREVKKKYTRDDLDTRIQDVLYYRSETYMKLVSFANGKRIKKLADPRKFEKFMDTKGVKIVAEVLDGLNNQPKMQAMEYEQKVLTKVRQWYQKKNHPELVDLEEEAFEQLVEKNIIYKKMKKRLYEEQDNQGFVYSDNFDMQLIRDSCDIEEALYLDITLGDY”, which “soluble on expression in E. coli” value is on record?
Answer: not soluble

Question: For “MDSQAQVLILLLLWVSGTCGDIVMSQSPSSLAVSAGEKVTMSCKSSQSLLNSRTRKNYLAWYQQKPGQSPKLLIYWASTRESGVPDRFTGSGSGTDFTLTISSVQAEDLAVYYCKQSYNLYTFGGGTKLEIKRADAAPTVSIFPPSSEQLTSGGASVVCFLNNFYPKDINVKWKIDGSERQNGVLNSWTDQDSKDSTYSMSSTLTLTKDEYERHNSYTCEATHKTSTSPIVKSFNRNEC”, which “soluble on expression in E. coli” value is on record?
Answer: soluble

Question: With “MDSRPGLRTTSPSSGTRTGRSNTRTLPPDPLLECAGRTRWPFGIREPDEDYPVTIIETEGFLNLVSVSAVALNQPFSLFFGAGVVLIPVRFECMRTPPVPAGRGGRVIRIVKFGIVRHLFSLLAQQVPVVQADGWIVNQNDQKKQNPPKRVKCGCVEDA” as the sequence, how does the “soluble on expression in E. coli” value read?
Answer: not soluble

Question: Which “soluble on expression in E. coli” value does the source give for “MDSSFTPIEQMLKFRASRHEDFPYQEILLTRLCMHMQSKLLENRNKMLKAQGINETLFMALITLESQENHSIQPSELSCALGSSRTNATRIADELEKRGWIERRESDNDRRCLHLQLTEKGHEFLREVLPPQHNCLHQLWSALSTTEKDQLEQITRKLLSRLDQMEQDGVVLEAMS” here?
Answer: not soluble

Question: Which “soluble on expression in E. coli” value does the source give for “MDTFRVFSLFAGISINNSHLLEFAVKAGREVMELNEHRATLFNKNVPSRGVKRVTAITNREREAVLRIEFPNVDVTDIDFDLFQARESTDKPLDVAAAIAYRLLLGSGLPQKFGCSDEVLLNFILQCRKKYRNVPYHNFYHVVDVCQTIYTFLYRGNVYEKLTELECFVLLITALVHDLDHMGLNNSFYLKTESPLGILSSASGNKSVLEVHHCNLAVEILSDPESDVFGGLEGAERTLAFRSMIDCVLATDMARHSEFLEKYLEIMKTSYNVDDSDHRQMTMDVLMKAGDISNVTKPFDVSRQWAMAVTEEFYRQGDMEKERGVEVLPMFDRSKNMELAKGQIGFIDFVAAPFFQKIVDACLQGMQWTVDRTKSNRAQWERVLEARSTG” here?
Answer: not soluble

Question: Which “soluble on expression in E. coli” value does the source give for “MDTIDLGNNESLVYGVFPNQDGTFTAMTYTKSKTFKTENGARRWLERNSGE” here?
Answer: soluble

Question: Which “soluble on expression in E. coli” value does the source give for “MDTNITWHTASVSKDERRVKNGHHSFVIWFTGLSASGKSTVANAVARKLFEKNIGNYVLDGDNIRHGLNKDLGFSESDRMENIRRIGEVAKLFVDQGAVVLTAFISPFRVDRKQVRDLLAVDEFIEVFVKCPIEECEKRDPKGLYKKARKGDIKEFTGIDSPYEEPEKAELIVETHKYSIEECAEQIVKYLQERSLI” here?
Answer: not soluble

Question: For “MDTQQIDVMVADASHEVYVDTILETIRNAAAVRGTGIAERTHEYVATKMKEGKAIIALCGDTFAGFTYIESWGNKQYVATSGLIVHPDFRGLGLAKRIKQASFQLARLRWPKAKIFSLTSGAAVMKMNTELGYVPVTFNELTDDEAFWKGCEGCTNHDILAAKNRKFCICTAMLYDPTDPRNIKKEQERNNI”, which “soluble on expression in E. coli” value is on record?
Answer: not soluble

Question: With “MDTSDHKPLIDRFETEFAEKSSLLRKEESELKRPDLRGDFLCLSCGQNFKHGASLNRHRKLVHSDEYTCMLCARKLYLKETVRDHMRNEHYLGQVYTCGCCNWTFSNKKALTEHAKAIQETGAPGDANPIAKSGNSPGSLLKSPIQRAGFKLNRLLNKSLSPSTSNSTTSSSSRDASGSPQPELELKLEPEPEPEPNEEALEYKRFFNNAVDTILQRNFFTDQQITEVDTWVIIIESANALATALQSYKKAQQIQPAEPAMIPEKRIKPEIE” as the sequence, how does the “soluble on expression in E. coli” value read?
Answer: soluble

Question: Which “soluble on expression in E. coli” value does the source give for “MDTTNQSEDIKPCDSDLMESILMFDEPISDILAHNKLWISHARTRSNFFPQEGRHISNQHTEAATSLKMWMLSKNLVVIVKRKDDIFPCKILTRNPENLFVARFLESGKEKHIQVEYSDIIMTRSELEKALPLCQHLIPARNWDDFYIIRDFEKATPYFEQGLSALVKPGQQFELQLEDAPDFYVMATVVKNYRGFLLVEYQNVSCVQKKTMPVFLFHFLMLFQFKRWIHMLSPYCHEIGWGKNEKQEYLKRGPYNRHMNVDLVAGLVKQSTNQKLGAVPEIVFRNNCPVPHRIPEYSACVYLDLDQKRFYFAHKVTTKTCRNNRHFFNISIGKNLVTSKQNNRPYEFHVYHPRILPYSVAKRMEVQIILPPDVKLLPDESNLDGYLRTYCNPCDKHKTSDRVQPSPKIAKKKNGPLLLDDTPDAMFRSRPLLGDNIGAHKEWTNFMNHIPDYKRKDLLKSMDTLKFCEIFRPTPTGALQLTAAEVTGQQECMLRLKVSGEDEPVYIHNADPHLYHLGACLDMELAINFHGEFFDEKPLKKNKNANNGFSSF” here?
Answer: not soluble

Question: For “MDVFNRNAERYDAWYDRNRELYEAELELLPKPISPSVEVGVGTGRFAVIGIDLGVDVSLQMLRIAKKRGVECVAGDAAHLPFKDKSFRSAYLIFTLCFLDEPIKALMEIKRVLEGTLVACVVPANSGLGREYSGKDSSFYRKARFLTEDEVLSMLRETGFKVKEIRRRKLKYDENDFVCFIAES”, which “soluble on expression in E. coli” value is on record?
Answer: not soluble

Question: Which “soluble on expression in E. coli” value does the source give for “MDVLPGRPRARRRRRRRQSRANILAIGVHLPRLRLSRGAMANALGWLSGGAGAGKGSRTLAYWDEDSVTMAVAAARHALARQAAPAIDALQFASTTPPFAEPQNAAFVRAALRLPATTLTQDVHGTPRAGLLALHMALESGTRTLVAAADLPTALPGSTAEARAGDGGAAVLTGDEPGLLRYLGGASLSAPFTDRYRAAGHDYPQEWEERWLREAGYLELVHDAIGRALQAASLRPEQVDHFVLPCPVPGVAAAVAAKAGLGQARLASALAENCGDTGAAHAFVMLGRALEDAAPGQKVLVAQFGQGATALLFEADEAVAGLAAPVSPALRDGLAEDNYMKLLAFRGRIAWDRGLRGRFLVNEALSTAWRNADALLDFVGGRCRETGQVQFPPTRLAATGGFHLDTQEPWPLADRGGRIATFTADLLAFSPCPPNCYGLVDIDGGGRVLMEFTDPQASQLEAGAAVAFALRIKDLDPQTGYRRYFWKALAAPTAD” here?
Answer: not soluble

Question: With “MDWLLTPGPVRLHPKALEALARPQLHHRTEAAREVFLKARGLLREAFRTEGEVLILTGSGTLAMEALVKNLFAPGERVLVPVYGKFSERFYEIALEAGLVVERLDYPYGDTPRPEDVAKEGYAGLLLVHSETSTGALADLPALARAFKEKNPEGLVGADMVTSLLVGEVALEAMGVDAAASGSQKGLMCPPGLGFVALSPRALERLKPRGYYLDLARELKAQKEGESAWTPAINLVLAVAAVLEEVLPRLEEHLALKAWQNALLYGVGEEGGLRPVPKRFSPAVAAFYLPEGVPYARVKEAFAQRGAVIAGGQGPLKGKVFRLSLMGAYDRYEALGVAGMFREVLEEILPAS” as the sequence, how does the “soluble on expression in E. coli” value read?
Answer: soluble

Question: For “MDYFDRCYIINLPERRDRRREMEKELERAGMPPMPGRVEFFPAIRPESAGPFPSIGAHGCFLSHLGILRAAKAQGLRNVLILEDDLTFAAQFPEVEEKLVGELRETPWDFAFFGHVLEFPEVPPDRAHLEPYAGPIVTAHFYAVNGAVIDRLLGFLDALLQRPPGHPDGGPMHVDGAYSTFRQQNPDVVTLVAVPSQGWQRSSRSDIAPNRWYDRWPLVRSLVALARRGKTWLRGNRRHAAALEHHHHHH”, which “soluble on expression in E. coli” value is on record?
Answer: not soluble

Question: With “MDYLYHPYPSQRMTVFAKNGVVATSQPLAAQAGLDVLKKGGNAIDAAIAAAACLTVVEPTSNGIGGDAFALVWTDGKLYGLNASGYAPKSISIEALKELGYTEMPKYGFAPVTVPGAPAAWAALSKRFGRLPLVETLAPAIAYAENGYPVSPVLGKYWAAAFRTYKEALRGPEFAAWFATFAPGGRAPKIGEVWASPDHAATLRSIAETEAESFYRGELAEKIAAFSKQYGGFLAADDLAEYEPEWVEPISVSYRGYEVWEIPPNGQGIVALMALNIMNGFDVPSVSDVETHHRQIEAMKLAFADGKAYIADRRYMNCSPDELLSESFAAMRRAQIGEEALTPEPGTPPKGGTVYLAAADGEGNMVSFIQSNYMGFGSGLVVPGTGIALHNRGHNFAFDESHPNGLAPRKKPYHTIIPGFLTKGGAPVGPFGVMGGFMQPQGHLQVIMNTVDFDLNPQAALDAPRWQWMEGKTVLVEPHFPRHIAEALARKGHDIRLALDSGLFGRGQIIWRDPDTGVLAAGTEPRTDGAVAAW” as the sequence, how does the “soluble on expression in E. coli” value read?
Answer: not soluble

Question: For “MDYTIIDAHAHLWLRQDTVVDGFPIRTLENGRSLFMGEIRQMVPPFMIDGVNSAEVFLSNMDYAQVSAAVITQEFIDGIQNDYLMEVVSRYPDRFFVCGMCEFRKPGYLEQAKELIGKGFKAIKIPAQRLLLKEGRVMLNCPEMMQMFRWMEERGVILSVDLAEGAIQVLEMEEIIQECPRLKIAVGHFGMVTLPDWKEQIKLARHPNVMIESGGITWLFNDEFYPFKGAIKAIREAAELVGMEKLMWGSDYPRTITAITYKMSYDFVVKSPELSEAEKTLFLGGNARKFYGFAELPELPYIKNMSE”, which “soluble on expression in E. coli” value is on record?
Answer: not soluble

Question: With “MEAEVDKLELMFQKAESDLDYIQYRLEYEIKTNHPDSASEKNPVTLLKELSVIKSRYQTLYARFKPVAVEQKESKSRICATVKKTMNMIQKLQKQTDLELSPLTKEEKTAAEQFKFHMPDL” as the sequence, how does the “soluble on expression in E. coli” value read?
Answer: not soluble

Question: For “MEAKEKKYGEIEIEKAQLEAWPNPNPERDYMIEITFPEFTCLCPRSGYPDFATIKIRYIPDKYIVELKSLKLWLNKFRNRYISHEAATNEIYQALYDLLKPRFLEVVGDFHPRGNVHTVVRVRSDENYGAAAAAALEHHHHHH”, which “soluble on expression in E. coli” value is on record?
Answer: soluble

Question: With “MEAKKSNKIREIVKLQQLLKKWRKQAIASKAANNNNEDNNSSGGGSKSIKFLKRTLSFTDVTAVPKGYLAVSVGLEKKRYTIPTEYLSHQAFYVLLREAEEEFGFQQAGVLRIPCEVSVFESILKIMEEKNEGYLVTPITAKQECKFNAAADDKTSYQHPSDCPKTPSHQPHNSPMCR” as the sequence, how does the “soluble on expression in E. coli” value read?
Answer: soluble
